Key:
His-FLP (FOUR LIPS) = biological target: T1, His-FLP (FOUR LIPS) (Arabidopsis thaliana, UniProt Q94FL6 1-436); experiment: EMSA; EMSA: 1x LightShift binding buffer, 2.5% glycerol, 50 mM KCl, 5 mM MgCl2, 0.05% NP-40, 10 mM EDTA, room temperature 20 min; pH not stated; settings: protein: recombinant; tags: His (pET-28a); label: 3' biotin; blunt
T1 sequence: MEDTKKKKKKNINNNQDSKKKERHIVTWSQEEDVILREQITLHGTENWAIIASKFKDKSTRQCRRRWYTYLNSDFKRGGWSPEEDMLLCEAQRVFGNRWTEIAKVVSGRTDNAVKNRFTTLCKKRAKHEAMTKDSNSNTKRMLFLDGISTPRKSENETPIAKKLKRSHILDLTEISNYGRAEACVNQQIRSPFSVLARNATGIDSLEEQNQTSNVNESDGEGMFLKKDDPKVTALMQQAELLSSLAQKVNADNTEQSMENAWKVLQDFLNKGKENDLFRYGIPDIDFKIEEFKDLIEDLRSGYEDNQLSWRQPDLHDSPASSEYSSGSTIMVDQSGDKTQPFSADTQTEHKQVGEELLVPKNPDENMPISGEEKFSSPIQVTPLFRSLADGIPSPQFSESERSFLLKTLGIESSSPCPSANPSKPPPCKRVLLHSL

His-MYB88 = biological target: T2, His-MYB88 (Arabidopsis thaliana, UniProt F4IRB4 1-484); experiment: as above; settings: protein: recombinant; tags: His (pET-28a); label: 3' biotin; blunt
T2 sequence: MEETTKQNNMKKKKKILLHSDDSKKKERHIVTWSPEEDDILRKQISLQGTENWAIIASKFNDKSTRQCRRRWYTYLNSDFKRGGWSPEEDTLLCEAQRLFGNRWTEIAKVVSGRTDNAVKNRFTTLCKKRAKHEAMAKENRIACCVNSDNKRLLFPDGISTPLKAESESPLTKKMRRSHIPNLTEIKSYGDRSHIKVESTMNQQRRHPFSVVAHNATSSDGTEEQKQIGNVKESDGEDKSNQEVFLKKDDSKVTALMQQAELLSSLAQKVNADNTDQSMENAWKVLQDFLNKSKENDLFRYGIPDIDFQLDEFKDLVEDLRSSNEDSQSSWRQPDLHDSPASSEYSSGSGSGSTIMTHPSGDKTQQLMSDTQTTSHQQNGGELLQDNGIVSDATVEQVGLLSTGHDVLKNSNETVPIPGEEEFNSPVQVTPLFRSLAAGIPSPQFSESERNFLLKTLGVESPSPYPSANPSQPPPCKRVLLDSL

B1: pCDKA-A (element A) (dsDNA)
DNA 1: TAATAAATAAAATTGTACCAAATTAATGCGGTTAGGTAAATTCAATTTATTGGAAATTA
DNA 2: TAATTTCCAATAAATTGAATTTACCTAACCGCATTAATTTGGTACAATTTTATTTATTA
- binding result (His-FLP (FOUR LIPS)): binds
- binding result (His-MYB88): binds

B2: pCDKA-C+D (elements C and D) (dsDNA)
DNA 1: TTACTCTCAATTAGTCAATCCCCTTCCCTAGTCCTCCTCTCTTCAAGCTTTTCACAGAA
DNA 2: TTCTGTGAAAAGCTTGAAGAGAGGAGGACTAGGGAAGGGGATTGACTAATTGAGAGTAA
- binding result (His-FLP (FOUR LIPS)): binds
- binding result (His-MYB88): binds

B3: pCDKA-B (element B) (dsDNA)
DNA 1: CTTGACACAAAAAAAAAAAAAGAAGAAAGAAAAAACCCTTACTCTCAATTAGTCAATCC
DNA 2: GGATTGACTAATTGAGAGTAAGGGTTTTTTCTTTCTTCTTTTTTTTTTTTTGTGTCAAG
- binding result (His-FLP (FOUR LIPS)): binds
- binding result (His-MYB88): binds

From PMC4036514, “Requirement for A-type cyclin-dependent kinase and cyclins for the terminal division in the stomatal lineage of Arabidopsis”
